Assay results from patent US20250011468A1 (Novo Nordisk, published 2025).
Values belong to the binder of their own block, whether it stands above or below them.

Assays:
[1] = biological target: T1, wild-type FIX with C-terminal His-tag (human, UniProt P00740 47-461); assay: SPR (Biacore T200), His-tagged FIX captured by anti-His antibody, one-armed antibody as analyte; % of wild-type binding
T1 construct: Secreted mature FIX from expi293F cells; also called WT
Procedure: (§1) SPR analyses were carried out on Biacore 4000 or Biacore T200 instruments (Biacore AB, Uppsala, Sweden). For the experiments on the T200 instrument the following conditions were applied: measurements were conducted at a temperature of 25° C. Anti-His antibody at 25 μg/ml (R&D Systems, catalogue #MAB050) was immobilized on a CM5 sensor chip using standard amine coupling chemistry. […] at 25 nM were injected at a flow rate of 10 μl/min for 1 min and were captured via their His-tag by the immobilized anti-His antibody. Subsequently, 200 nM (with 4-fold serial dilutions), 1600 nM (with 3-fold serial dilutions), and 2000 nM (with 3-fold serial dilution) of mAb4-0004, mAb3-3279 and mAb4-0673, respectively, were injected at a flow rate of 50 μl/min for 5 min to allow for binding to captured FIX variant followed by a 10 min buffer injection allowing for dissociation of the monovalent anti-FIX antibodies. The running buffer used was 20 mM Tris, 150 mM NaCl, 5 mM CaCl₂, 0.05% Tween-20, 1 mg/ml BSA, pH 7.4. This was also used for dilution of anti-FIX antibody and FIX samples. Regeneration of the chip was achieved using 10 mM Glycine pH 2.0. Binding data were analysed according to a 1:1 model using BiaEvaluation 4.1 supplied by the manufacturer (Biacore AB, Uppsala, Sweden). A similar experimental set-up was used for the Biacore 4000 instrument.

[2] = biological target: FIX K301A with C-terminal His-tag (human, UniProt P00740 47-461); assay: SPR (Biacore T200), His-tagged FIX variant captured by anti-His antibody, one-armed antibody as analyte; % of wild-type binding
Procedure: as §1
(§2) A more detailed binding analysis was conducted for residues defined as epitope residues (see example 6) using the Biacore T200 instrument.

[3] = biological target: FIX D332S with C-terminal His-tag (human, UniProt P00740 47-461); assay: as above
Procedure: as §1, §2

[4] = biological target: FIX D332A with C-terminal His-tag (human, UniProt P00740 47-461); assay: as above
Procedure: as §1, §2

[5] = biological target: FIX R333A with C-terminal His-tag (human, UniProt P00740 47-461); assay: as above
Procedure: as §1, §2

[6] = biological target: FIX A334L with C-terminal His-tag (human, UniProt P00740 47-461); assay: as above
Procedure: as §1, §2

[7] = biological target: FIX T335A with C-terminal His-tag (human, UniProt P00740 47-461); assay: as above
Procedure: as §1, §2

[8] = biological target: FIX L337A with C-terminal His-tag (human, UniProt P00740 47-461); assay: as above
Procedure: as §1, §2

[9] = biological target: FIX R338A with C-terminal His-tag (human, UniProt P00740 47-461); assay: as above
Procedure: as §1, §2

[10] = biological target: FIX S339L with C-terminal His-tag (human, UniProt P00740 47-461); assay: as above
Procedure: as §1, §2

[11] = biological target: FIX T340A with C-terminal His-tag (human, UniProt P00740 47-461); assay: as above
Procedure: as §1, §2

[12] = biological target: FIX K341E with C-terminal His-tag (human, UniProt P00740 47-461); assay: as above
Procedure: as §1, §2

[13] = biological target: FIX K341A with C-terminal His-tag (human, UniProt P00740 47-461); assay: as above
Procedure: as §1, §2

[14] = biological target: FIX T343I with C-terminal His-tag (human, UniProt P00740 47-461); assay: as above
Procedure: as §1, §2

[15] = biological target: FIX T343A with C-terminal His-tag (human, UniProt P00740 47-461); assay: as above
Procedure: as §1, §2

[16] = biological target: FIX N346A with C-terminal His-tag (human, UniProt P00740 47-461); assay: as above
Procedure: as §1, §2

[17] = biological target: FIX N346Q with C-terminal His-tag (human, UniProt P00740 47-461); assay: as above
Procedure: as §1, §2

FIX R338A with C-terminal His-tag, sequence (P00740 other isoform, or with tags, fused parts or gaps R338A R338A limits assumed): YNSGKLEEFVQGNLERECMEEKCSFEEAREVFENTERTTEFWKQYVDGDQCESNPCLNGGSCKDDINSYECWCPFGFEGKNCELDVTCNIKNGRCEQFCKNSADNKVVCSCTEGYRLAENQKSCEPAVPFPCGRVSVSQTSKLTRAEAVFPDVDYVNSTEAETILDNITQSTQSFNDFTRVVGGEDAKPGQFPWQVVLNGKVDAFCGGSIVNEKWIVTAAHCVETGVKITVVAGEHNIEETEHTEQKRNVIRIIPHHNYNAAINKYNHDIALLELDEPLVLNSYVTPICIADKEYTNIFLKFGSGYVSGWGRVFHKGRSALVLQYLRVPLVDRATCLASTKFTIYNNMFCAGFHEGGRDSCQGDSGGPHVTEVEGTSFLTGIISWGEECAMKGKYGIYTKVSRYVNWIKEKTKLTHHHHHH
FIX S339L with C-terminal His-tag, sequence (P00740 other isoform, or with tags, fused parts or gaps S339L S339L limits assumed): as the sequence (P00740 other isoform, or with tags, fused parts or gaps R338A R338A limits assumed) above, with A338R, S339L counted along it
FIX K301A with C-terminal His-tag, sequence (P00740 other isoform, or with tags, fused parts or gaps K301A K301A limits assumed): as the sequence (P00740 other isoform, or with tags, fused parts or gaps R338A R338A limits assumed) above, with K301A, A338R counted along it
FIX T343A with C-terminal His-tag, sequence (P00740 other isoform, or with tags, fused parts or gaps T343A T343A limits assumed): as the sequence (P00740 other isoform, or with tags, fused parts or gaps R338A R338A limits assumed) above, with A338R, T343A counted along it
FIX T343I with C-terminal His-tag, sequence (P00740 other isoform, or with tags, fused parts or gaps T343I T343I limits assumed): as the sequence (P00740 other isoform, or with tags, fused parts or gaps R338A R338A limits assumed) above, with A338R, T343I counted along it
FIX K341E with C-terminal His-tag, sequence (P00740 other isoform, or with tags, fused parts or gaps K341E K341E limits assumed): as the sequence (P00740 other isoform, or with tags, fused parts or gaps R338A R338A limits assumed) above, with A338R, K341E counted along it
FIX N346A with C-terminal His-tag, sequence (P00740 other isoform, or with tags, fused parts or gaps N346A N346A limits assumed): as the sequence (P00740 other isoform, or with tags, fused parts or gaps R338A R338A limits assumed) above, with A338R, N346A counted along it
FIX T335A with C-terminal His-tag, sequence (P00740 other isoform, or with tags, fused parts or gaps T335A T335A limits assumed): as the sequence (P00740 other isoform, or with tags, fused parts or gaps R338A R338A limits assumed) above, with T335A, A338R counted along it
FIX R333A with C-terminal His-tag, sequence (P00740 other isoform, or with tags, fused parts or gaps R333A R333A limits assumed): as the sequence (P00740 other isoform, or with tags, fused parts or gaps R338A R338A limits assumed) above, with R333A, A338R counted along it
FIX A334L with C-terminal His-tag, sequence (P00740 other isoform, or with tags, fused parts or gaps A334L A334L limits assumed): as the sequence (P00740 other isoform, or with tags, fused parts or gaps R338A R338A limits assumed) above, with A334L, A338R counted along it
FIX D332A with C-terminal His-tag, sequence (P00740 other isoform, or with tags, fused parts or gaps D332A D332A limits assumed): as the sequence (P00740 other isoform, or with tags, fused parts or gaps R338A R338A limits assumed) above, with D332A, A338R counted along it
FIX T340A with C-terminal His-tag, sequence (P00740 other isoform, or with tags, fused parts or gaps T340A T340A limits assumed): as the sequence (P00740 other isoform, or with tags, fused parts or gaps R338A R338A limits assumed) above, with A338R, T340A counted along it
T1 sequence (P00740 other isoform, or with tags, fused parts or gaps limits assumed): as the sequence (P00740 other isoform, or with tags, fused parts or gaps R338A R338A limits assumed) above, with A338R counted along it
FIX K341A with C-terminal His-tag, sequence (P00740 other isoform, or with tags, fused parts or gaps K341A K341A limits assumed): as the sequence (P00740 other isoform, or with tags, fused parts or gaps R338A R338A limits assumed) above, with A338R, K341A counted along it
FIX L337A with C-terminal His-tag, sequence (P00740 other isoform, or with tags, fused parts or gaps L337A L337A limits assumed): as the sequence (P00740 other isoform, or with tags, fused parts or gaps R338A R338A limits assumed) above, with L337A, A338R counted along it
FIX N346Q with C-terminal His-tag, sequence (P00740 other isoform, or with tags, fused parts or gaps N346Q N346Q limits assumed): as the sequence (P00740 other isoform, or with tags, fused parts or gaps R338A R338A limits assumed) above, with A338R, N346Q counted along it
FIX D332S with C-terminal His-tag, sequence (P00740 other isoform, or with tags, fused parts or gaps D332S D332S limits assumed): as the sequence (P00740 other isoform, or with tags, fused parts or gaps R338A R338A limits assumed) above, with D332S, A338R counted along it

Binding (%) relative to wild-type [1]: 100%
Binding (%) relative to wild-type [2]: 66%
Binding (%) relative to wild-type [3]: 66%
Binding (%) relative to wild-type [4]: 50%
Binding (%) relative to wild-type [5]: 66%
Binding (%) relative to wild-type [6]: 51%
Binding (%) relative to wild-type [7]: 62%
Binding (%) relative to wild-type [8]: 52%
Binding (%) relative to wild-type [9]: 2%
Binding (%) relative to wild-type [10]: 66%
Binding (%) relative to wild-type [11]: 37%
Binding (%) relative to wild-type [12]: 2%
Binding (%) relative to wild-type [13]: 21%
Binding (%) relative to wild-type [14]: 48%
Binding (%) relative to wild-type [15]: 38%
Binding (%) relative to wild-type [16]: 73%
B1: mAb4-0004 (monovalent one-armed variant of mAb0-1998) (antibody, V domains shown)
VH: EVQLVESGGGLVQPGRSLKLSCAASGFTFDDYAMHWVRQVPGKGLEWVSGISWNGDNIGYVDSVKGRFTISRDNAKNSLYLQLNSLRAEDTALYYCVKSYGSGSFYNAFDSWGQGTLVTVSS
VL: DIQMTQSPSTLSASAGDRVTITCRASQSISSWLAWYQQKPGKAPKFLIYKASSLESGVPSRFSGSGSGTEFSLTISSLQPDDFATYYCLEYSSYIRTFGQGTKVEIK

Binding (%) relative to wild-type [1]: 100%
Binding (%) relative to wild-type [2]: 93%
Binding (%) relative to wild-type [4]: 17%
Binding (%) relative to wild-type [5]: 4%
Binding (%) relative to wild-type [6]: 44%
Binding (%) relative to wild-type [7]: 71%
Binding (%) relative to wild-type [8]: 7%
Binding (%) relative to wild-type [9]: 3%
Binding (%) relative to wild-type [10]: 73%
Binding (%) relative to wild-type [11]: 67%
Binding (%) relative to wild-type [12]: 53%
Binding (%) relative to wild-type [13]: 96%
Binding (%) relative to wild-type [14]: 90%
Binding (%) relative to wild-type [15]: 63%
Binding (%) relative to wild-type [16]: 51%
Binding (%) relative to wild-type [17]: 94%
B2: mAb4-0673 (monovalent one-armed variant of mAb0-1886) (antibody, V domains shown)
VH: EVQLVQSGAEVKKPGESLRISCKGSGYSFTSYWIGWVRQMPGKGLEWMGMIDPSDSYTDYGPSFRGHVTISADKSISTAYLQWSSLKASDTAMYYCARVRIMEGAFDIWGQGTMVTVSS
VL: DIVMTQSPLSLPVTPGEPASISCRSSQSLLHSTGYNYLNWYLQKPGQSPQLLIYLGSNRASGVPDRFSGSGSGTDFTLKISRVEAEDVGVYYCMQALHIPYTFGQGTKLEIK
